This note sets out measurements from the supplement of paper PMC9112550, “Optimization of the antimicrobial peptide Bac7 by deep mutational scanning” (BMC Biology, 2022).

The data set concerns Escherichia coli TOP10. As to the kind of experiment: shrunken log2 fold change of peptide-encoding DNA abundance (4.5 h post-induction vs induction); higher = less antimicrobial activity (less host growth inhibition). As to conditions: time post-induction: 4.5 h; library: site-saturation at positions 5, 18, 19, 20.
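Further: peptides expressed intracellularly from a pBAD plasmid library in pooled LB shake-flask culture, induced with 0.3% L-arabinose, DNA abundance read by NGS, three biological replicates, DESeq2 with apeglm shrinkage.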

As to RRIRRRPPRLPRPRPRPEIRPRP, the “shrunken log2 fold change” value is 0.0292. For RRIRKRPPRLPRPRPRPAENPRP the value was 0.0163.

For RRIRIRPPRLPRPRPRPTFMPRP, the “shrunken log2 fold change” value was 1.69. For RRIRNRPPRLPRPRPRPEPTPRP, the “shrunken log2 fold change” value turned out to be 0.587. Turning to RRIRHRPPRLPRPRPRPSWCPRP, the “shrunken log2 fold change” value was -0.453.

On to RRIRCRPPRLPRPRPRPAEQPRP, for which the “shrunken log2 fold change” value turned out to be 0.252. As for RRIRSRPPRLPRPRPRPNFFPRP, the “shrunken log2 fold change” value came to 0.179.

Regarding RRIRPRPPRLPRPRPRPITHPRP, the “shrunken log2 fold change” value was -0.117.

As for RRIRARPPRLPRPRPRPDALPRP, the “shrunken log2 fold change” value was 0.625.

On to RRIRFRPPRLPRPRPRPDCHPRP, for which the “shrunken log2 fold change” value was -0.0405.

Consider RRIRGRPPRLPRPRPRPQCWPRP, for which the “shrunken log2 fold change” value came out at 0.623. With RRIRCRPPRLPRPRPRPSDTPRP, the “shrunken log2 fold change” value was -0.134. The result for RRIRKRPPRLPRPRPRPFNMPRP reads 0.0229; that for RRIRERPPRLPRPRPRPIYAPRP, -0.086; that for RRIRVRPPRLPRPRPRPNPYPRP, -0.376. For RRIRTRPPRLPRPRPRPIPWPRP, the “shrunken log2 fold change” value was -0.0529. The result for RRIRERPPRLPRPRPRPSREPRP reads 0.125. The result for RRIRDRPPRLPRPRPRPVEPPRP reads 0.0157; that for RRIRVRPPRLPRPRPRPVILPRP, -0.248. For RRIRSRPPRLPRPRPRPWYCPRP the value was 0.017; for RRIRSRPPRLPRPRPRPMKCPRP, 0.235. With RRIRARPPRLPRPRPRPSHIPRP, the “shrunken log2 fold change” value was -0.523. In the case of RRIRDRPPRLPRPRPRPSQCPRP, the “shrunken log2 fold change” value was -0.034. For RRIRERPPRLPRPRPRPYTAPRP the value was -0.662.

With RRIRIRPPRLPRPRPRPKVHPRP, the “shrunken log2 fold change” value is -0.094. The result for RRIRSRPPRLPRPRPRPLAKPRP reads 0.358; that for RRIRNRPPRLPRPRPRPHSCPRP, -0.00198. With RRIRIRPPRLPRPRPRPSKAPRP, the “shrunken log2 fold change” value was -0.176. As for RRIRPRPPRLPRPRPRPLVMPRP, the “shrunken log2 fold change” value amounted to 0.0377. The result for RRIRWRPPRLPRPRPRPGDPPRP reads 1.14. For RRIRGRPPRLPRPRPRPPCVPRP the value was 1.15; for RRIRARPPRLPRPRPRPFDNPRP, 0.098; for RRIRNRPPRLPRPRPRPRTGPRP, -0.0238.

On to RRIRGRPPRLPRPRPRPASAPRP, for which the “shrunken log2 fold change” value worked out at 0.818. The result for RRIRKRPPRLPRPRPRPAWIPRP reads 0.0453. For the sequence RRIRKRPPRLPRPRPRPLIAPRP, the “shrunken log2 fold change” value is 0.456. The result for RRIRNRPPRLPRPRPRPSHEPRP reads 0.00187.

Turning to RRIRKRPPRLPRPRPRPWATPRP, the “shrunken log2 fold change” value was 0.546. Turning to RRIRPRPPRLPRPRPRPRYTPRP, the “shrunken log2 fold change” value was -0.266.

As for RRIRWRPPRLPRPRPRPDMHPRP, the “shrunken log2 fold change” value is 0.199. For RRIRHRPPRLPRPRPRPVAFPRP the value was -0.187. For RRIRQRPPRLPRPRPRPQGCPRP the value was -0.0562; for RRIRRRPPRLPRPRPRPLFKPRP, -0.00471; for RRIRYRPPRLPRPRPRPSIWPRP, -1.31.

In the case of RRIRLRPPRLPRPRPRPSGLPRP, the “shrunken log2 fold change” value is -0.429. The result for RRIRTRPPRLPRPRPRPNSTPRP reads -0.363.

Take RRIRGRPPRLPRPRPRPSAGPRP: the “shrunken log2 fold change” value came to 1.09.

Turning to RRIRARPPRLPRPRPRPHDIPRP, the “shrunken log2 fold change” value is -0.08.

For the sequence RRIRERPPRLPRPRPRPGKAPRP, the “shrunken log2 fold change” value was -0.0498.

Take RRIRNRPPRLPRPRPRPSREPRP: the “shrunken log2 fold change” value is -0.103. The result for RRIRLRPPRLPRPRPRPCNTPRP reads -0.186. For RRIRNRPPRLPRPRPRPCPRPRP the value was -0.0673; for RRIRYRPPRLPRPRPRPRLPPRP, -0.0393. For the sequence RRIRTRPPRLPRPRPRPDGPPRP, the “shrunken log2 fold change” value was 0.126. Take RRIRWRPPRLPRPRPRPGQCPRP: the “shrunken log2 fold change” value was determined as 0.00553.

Consider RRIRLRPPRLPRPRPRPQKKPRP, for which the “shrunken log2 fold change” value was -0.176. The result for RRIRKRPPRLPRPRPRPLMEPRP reads 0.124. Turning to RRIRYRPPRLPRPRPRPACIPRP, the “shrunken log2 fold change” value was -0.389. In the case of RRIRWRPPRLPRPRPRPNEQPRP, the “shrunken log2 fold change” value was -0.00804. Regarding RRIRPRPPRLPRPRPRPAQHPRP, the “shrunken log2 fold change” value came out at 0.223. Consider RRIRSRPPRLPRPRPRPPEVPRP, for which the “shrunken log2 fold change” value was 0.287.

Turning to RRIRGRPPRLPRPRPRPQWPPRP, the “shrunken log2 fold change” value turned out to be 0.475. The result for RRIRDRPPRLPRPRPRPHEFPRP reads 0.00812. Take RRIRIRPPRLPRPRPRPETGPRP: the “shrunken log2 fold change” value was -0.322. Regarding RRIRVRPPRLPRPRPRPDEGPRP, the “shrunken log2 fold change” value is 0.0672. The result for RRIRSRPPRLPRPRPRPEHHPRP reads -0.153; that for RRIRPRPPRLPRPRPRPPHWPRP, 0.865. For RRIRSRPPRLPRPRPRPDTWPRP the value was -0.0193; for RRIRRRPPRLPRPRPRPCSAPRP, 0.34; for RRIRMRPPRLPRPRPRPDESPRP, 2.38. For RRIRYRPPRLPRPRPRPPEMPRP the value was 0.123; for RRIRERPPRLPRPRPRPCERPRP, -0.0138. In the case of RRIRFRPPRLPRPRPRPNIWPRP, the “shrunken log2 fold change” value is -0.224. For RRIRVRPPRLPRPRPRPMHRPRP the value was -0.0728; for RRIRLRPPRLPRPRPRPFNFPRP, -0.855.

On to RRIRDRPPRLPRPRPRPAFFPRP, for which the “shrunken log2 fold change” value was 0.342. As to RRIRLRPPRLPRPRPRPKFHPRP, the “shrunken log2 fold change” value was -0.174. For RRIRLRPPRLPRPRPRPIWHPRP the value was -0.0382; for RRIRYRPPRLPRPRPRPPINPRP, -0.378; for RRIRVRPPRLPRPRPRPTIYPRP, -0.498.

For the sequence RRIRARPPRLPRPRPRPPVEPRP, the “shrunken log2 fold change” value was 0.292.

In the case of RRIRFRPPRLPRPRPRPDTHPRP, the “shrunken log2 fold change” value is -0.618.

For RRIRCRPPRLPRPRPRPSNLPRP, the “shrunken log2 fold change” value is -0.425. The result for RRIRERPPRLPRPRPRPHAFPRP reads -0.0188; that for RRIRGRPPRLPRPRPRPNQYPRP, -0.166; that for RRIRTRPPRLPRPRPRPYSIPRP, 0.015. In the case of RRIRCRPPRLPRPRPRPRFQPRP, the “shrunken log2 fold change” value came to 0.234. Regarding RRIRMRPPRLPRPRPRPSKMPRP, the “shrunken log2 fold change” value is -0.0315. For RRIRHRPPRLPRPRPRPVLNPRP the value was 0.157; for RRIRKRPPRLPRPRPRPIDHPRP, -0.0104. The result for RRIRNRPPRLPRPRPRPHIPPRP reads -0.793; that for RRIRNRPPRLPRPRPRPLVKPRP, -0.741. For RRIRIRPPRLPRPRPRPMCHPRP the value was -0.316. For RRIRHRPPRLPRPRPRPGGKPRP, the “shrunken log2 fold change” value is -0.0185.

For RRIRLRPPRLPRPRPRPVVFPRP, the “shrunken log2 fold change” value was -0.136. For RRIRCRPPRLPRPRPRPAMQPRP the value was 0.0643. For RRIRYRPPRLPRPRPRPPSLPRP the value was 0.289; for RRIRPRPPRLPRPRPRPMPSPRP, -0.0976; for RRIRVRPPRLPRPRPRPACAPRP, 0.322. For RRIRDRPPRLPRPRPRPDQHPRP the value was 0.132; for RRIRVRPPRLPRPRPRPKHFPRP, 0.0968; for RRIRWRPPRLPRPRPRPCLMPRP, -0.225. Take RRIRVRPPRLPRPRPRPLTFPRP: the “shrunken log2 fold change” value was -0.271. For RRIRARPPRLPRPRPRPVLWPRP the value was 2.26. Take RRIRIRPPRLPRPRPRPAGQPRP: the “shrunken log2 fold change” value was determined as 0.0455. Regarding RRIRTRPPRLPRPRPRPALEPRP, the “shrunken log2 fold change” value amounted to 0.122.

On to RRIRERPPRLPRPRPRPLDEPRP, for which the “shrunken log2 fold change” value is -0.396. For RRIRFRPPRLPRPRPRPMNYPRP, the “shrunken log2 fold change” value was -0.582. Take RRIRKRPPRLPRPRPRPFPPPRP: the “shrunken log2 fold change” value was 0.33.

Turning to RRIRGRPPRLPRPRPRPGWTPRP, the “shrunken log2 fold change” value is 0.708. For RRIRYRPPRLPRPRPRPMMWPRP the value was 0.00408. RRIRTRPPRLPRPRPRPISTPRP: the “shrunken log2 fold change” value was -0.504. The result for RRIRERPPRLPRPRPRPGVPPRP reads 0.149; that for RRIRRRPPRLPRPRPRPHYYPRP, -0.0297; that for RRIRFRPPRLPRPRPRPKAFPRP, 0.133. For RRIRFRPPRLPRPRPRPLIYPRP the value was -0.898; for RRIRGRPPRLPRPRPRPPISPRP, 0.163; for RRIRKRPPRLPRPRPRPHKPPRP, -0.0045. The result for RRIRDRPPRLPRPRPRPLAGPRP reads 0.121; that for RRIRLRPPRLPRPRPRPQVIPRP, -0.136. Consider RRIRERPPRLPRPRPRPGNFPRP, for which the “shrunken log2 fold change” value is -0.0564. For RRIRSRPPRLPRPRPRPADLPRP the value was 0.274.

Consider RRIRTRPPRLPRPRPRPFHYPRP, for which the “shrunken log2 fold change” value was -0.0376. Turning to RRIRMRPPRLPRPRPRPHHYPRP, the “shrunken log2 fold change” value was -0.51.

For the sequence RRIRVRPPRLPRPRPRPPQEPRP, the “shrunken log2 fold change” value worked out at 0.177.
